Experimental data as given in patent publication US20040063790A1, “Methods for inhibition of angiogenesis” (The Scripps Research Institute, priority 1996, published 2004).

What was measured:
[1] = tested on: αvβ3-expressing CS-1 cells; assay: Inhibition of cell attachment assay; type: cell-based, hamster
Method: As one means to determine integrin receptor specificity of the antagonists of this invention, inhibition of cell attachment assays were performed as described below.
Briefly, CS-1 hamster melanoma cells lacking expression of αvβ3 and αvβ5 were first transfected with an plasmid for expressing the […] as previously described by Filardo et al., J. Cell Biol., 130:441-450 (1995). Specificity of potential αvβ3 antagonists was determined by the ability to block the binding of αvβ3-expressing CS-1 cells to VN or laminin coated plates. As an example of a typical assay, the wells were first coated with 10 μg/ml substrate overnight. After rinsing and blocking with 1% heat-denatured BSA in PBS at room temperature for 30 minutes, peptide 85189 (SEQ ID NO: 15) over a concentration range of 0.0001 μM to 100 μM, was separately mixed with CS-1 cells for applying to wells with a cell number of 50, 000 cells/well. After a 10-15 minute incubation at 37° C., the solution containing the cells and peptides was discarded. The number of attached cells was then determined following staining with 1% crystal violet. Cell associated crystal violet was eluted by the addition of 100 microliters (μl) of 10% acetic acid. Cell adhesion was quantified by measuring the optical density of the eluted crystal violet at a wave length of 600 nm.

αvβ3 = biological target: T1, αvβ3 (Homo sapiens, UniProt P05106+P06756); assay: Solid phase receptor binding assay (iodinated MMP-2, labeled fusion proteins)
T1 construct: selected purified integrins were separately immobilized in Titertek microtiter wells
T1 sequence (P06756 31-889 limits assumed): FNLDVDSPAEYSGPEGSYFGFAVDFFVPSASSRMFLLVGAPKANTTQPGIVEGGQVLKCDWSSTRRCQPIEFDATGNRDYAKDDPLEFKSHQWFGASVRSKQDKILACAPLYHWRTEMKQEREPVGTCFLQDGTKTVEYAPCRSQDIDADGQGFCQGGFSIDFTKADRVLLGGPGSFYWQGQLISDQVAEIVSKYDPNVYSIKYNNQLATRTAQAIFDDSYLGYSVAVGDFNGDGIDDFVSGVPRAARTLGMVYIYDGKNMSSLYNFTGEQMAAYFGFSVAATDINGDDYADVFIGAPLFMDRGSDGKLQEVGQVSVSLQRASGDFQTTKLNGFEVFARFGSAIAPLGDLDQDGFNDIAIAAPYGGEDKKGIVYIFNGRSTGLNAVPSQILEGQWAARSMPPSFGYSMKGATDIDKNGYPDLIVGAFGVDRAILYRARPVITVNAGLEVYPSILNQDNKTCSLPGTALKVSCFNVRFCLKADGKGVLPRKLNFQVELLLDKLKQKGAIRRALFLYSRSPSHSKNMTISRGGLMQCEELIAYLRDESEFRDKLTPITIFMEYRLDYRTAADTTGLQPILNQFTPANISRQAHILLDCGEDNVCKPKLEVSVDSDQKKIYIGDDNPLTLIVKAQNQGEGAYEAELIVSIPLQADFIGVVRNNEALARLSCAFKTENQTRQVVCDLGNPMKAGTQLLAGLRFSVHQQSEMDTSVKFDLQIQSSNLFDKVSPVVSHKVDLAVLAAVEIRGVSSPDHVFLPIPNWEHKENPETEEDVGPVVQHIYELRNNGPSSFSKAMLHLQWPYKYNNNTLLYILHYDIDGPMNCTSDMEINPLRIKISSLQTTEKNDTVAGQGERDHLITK
T1 sequence (P06756 891-1048 partner limits assumed): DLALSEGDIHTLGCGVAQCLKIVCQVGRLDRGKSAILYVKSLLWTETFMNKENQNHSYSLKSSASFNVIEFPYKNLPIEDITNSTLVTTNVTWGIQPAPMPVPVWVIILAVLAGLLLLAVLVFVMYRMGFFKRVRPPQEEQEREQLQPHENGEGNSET
T1 sequence (P05106 27-788): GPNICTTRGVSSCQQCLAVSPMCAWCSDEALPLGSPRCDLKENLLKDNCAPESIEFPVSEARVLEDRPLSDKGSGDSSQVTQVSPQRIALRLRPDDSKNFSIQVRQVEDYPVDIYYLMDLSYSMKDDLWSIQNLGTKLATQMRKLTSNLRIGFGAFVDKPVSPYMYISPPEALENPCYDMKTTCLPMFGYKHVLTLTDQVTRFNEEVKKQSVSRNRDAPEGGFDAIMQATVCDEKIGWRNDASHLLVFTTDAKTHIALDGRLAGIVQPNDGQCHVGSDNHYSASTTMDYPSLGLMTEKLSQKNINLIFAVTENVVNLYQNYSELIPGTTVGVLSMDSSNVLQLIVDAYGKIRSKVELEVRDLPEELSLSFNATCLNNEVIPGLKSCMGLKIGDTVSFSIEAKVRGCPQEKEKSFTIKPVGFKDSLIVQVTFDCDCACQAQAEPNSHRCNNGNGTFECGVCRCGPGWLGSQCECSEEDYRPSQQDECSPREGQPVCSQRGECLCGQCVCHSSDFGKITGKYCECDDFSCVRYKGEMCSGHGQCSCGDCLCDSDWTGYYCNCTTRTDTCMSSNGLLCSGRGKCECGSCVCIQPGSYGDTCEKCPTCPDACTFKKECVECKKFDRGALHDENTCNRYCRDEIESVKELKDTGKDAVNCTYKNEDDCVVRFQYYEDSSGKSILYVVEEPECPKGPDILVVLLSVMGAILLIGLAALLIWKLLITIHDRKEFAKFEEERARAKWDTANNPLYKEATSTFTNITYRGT
Method: In addition, the ability of peptides to inhibit the binding of either MMP-2 or VN to immobilized αvβ3 was assessed with peptides 69601 (SEQ ID NO: 6) and 66203 (SEQ ID NO: 5).
Specificity of receptor interaction with MMP-2-derived antagonists was confirmed with binding and inhibition of binding solid phase assays. […] In addition, the binding of labeled GST2-4 was competed by unlabeled GST2-4.

[2] = tested on: bFGF-induced angiogenesis; assay: CAM assay, growth factor-induced angiogenesis, intravenous application; type: in vivo, chick; settings: 50 μg fusion protein; after 48 and 72 hours
Method: J. Pathol., 79:597 (1975). CAMs were prepared from chick embryos for subsequent induction of angiogenesis and inhibition thereof as described in Examples 4 and 5, respectively. Ten day old chick embryos were obtained from McIntyre Poultry (Lakeside, Calif.) and incubated at 37° C. with 60% humidity. A small hole was made through the shell at the end of the egg directly over the air sac with the use of a small crafts drill (Dremel, Division of Emerson Electric Co. Racine Wis.). A second hole was drilled on the broad side of the egg in a region devoid of embryonic blood vessels determined previously by candling the egg. […] A 1.0 centimeter (cm)×1.0 cm square window was cut through the shell over the dropped CAM with the use of a small model grinding wheel (Dremel). The small window allowed direct access to the underlying CAM.
Angiogenesis was induced by placing a 5 millimeter (mm)×5 mm Whatman filter disk (Whatman Filter paper No.1) saturated with Hanks Balanced Salt Solution (HBSS, GIBCO, Grand Island, N.Y.) or HBSS containing 150 nanograms/milliliter (ng/ml) recombinant basic fibroblast growth factor (bFGF) (Genzyme, Cambridge, Mass.) on the CAM of a 10-day chick embryo in a region devoid of blood vessels and the windows were latter sealed with tape. In other assays, 125 ng/ml bFGF was also effective at inducing blood vessel growth. For assays where inhibition of angiogenesis ws evaluated with intravenous injections of antagonists, angiogenesis was first induced with 1-2 μg/ml bFGF in fibroblast growth medium. Angiogenesis was monitored by photomicroscopy after 72 hours. CAMs were snap frozen, and 6 um cryostat sections were fixed with acetone and stained by immunofluorescence as described in Example 3C with 10 μg/ml of either anti-β1 monoclonal antibody CSAT or LM609.
For CAM preparations in which angiogenesis was induced with 1-2 μg/ml bFGF as previously described, synthetic peptides 69601 (control) and 66203 (SEQ ID NO: 5) were separately intravenously injected into CAM preparations 18 hours after bFGF induction of angiogenesis. The preparations were maintained for an additional 36-40 hours after which time the number of branch points were determined as previously described.
In other assays, peptide 85189 (SEQ ID NO: 15) was evaluated for inhibiting bFGF-induced angiogenesis in the CAM assay over a dosage range of 10 μg/embryo to 300 μg/embryo. The assay was performed as previously described.
In still further assays, peptide 85189 was compared to peptides 69601 and 66203 for anti-angiogenesis activity. The assay was performed as described above with the exception that 50 μg peptide were used.
The effectiveness of the different salt formulations of peptide 85189 was also evaluated in similar bFGF-induced CAM assays. The peptides were used at 100 μg/embryo. […] Untreated CAMs, labeled as “no cytokine” had approximately […] as many branch points as that seen with bFGF treatment, respectively 70 versus 190.
With the above-described protocol, the effect of MMP-2 fusion proteins, CTMMP-2(2-4), also referred to as CTMMP-2(445-467) and CTMMP-2(10-1), also referred to as CTMMP-2(274-637) was also evaluated. The assay was performed as previously described with the exception that 50 μg of fusion protein was administered to the bFGF-treated embryos. The effect of fusion protein treatment was assessed at 24 hours, 48 hours and 72 hours.
The 10 day old CAM preparation was used as previously described in Example 5A. Twenty-four hours after bFGF-induced angiogenesis was initiated, the organic peptidomimetics referred to as compounds 16 (81218), 17 (87292) and 18 (87293) were separately intravenously injected into the CAM preparation in a volume of 100 μl at a concentration of 1 mg/ml (100 μg/embryo) in 20% tetraglycol-PBS at pH 7.0. In parallel assays, compounds 7 (96112), 9 (99799), 10 (96229), 12 (112854) and 14 (96113) were similarly evaluated. […]

CS-1 tumor (β3-negative) = assay: CS-1 tumor growth in CAM; type: in vivo, chick; settings: 50 μg intravenously after 24 hours of tumor growth; mass after 6 days; versus CTMMP-2(10-1) or PBS
Method: A CS-1 tumor (β3-negative) was prepared in a CAM as described above. After 24 hours of tumor growth, a composition of MMP-2 fragment, designated CTMMP-2(2-4) and prepared as described in Example 2A, was administered intraveneously at 50 μg fragment in 100 μl of PBS. After 6 days, the tumor was evaluated for mass. Tumors treated with CTMMP-2(2-4) were reduced in growth rate by about 50% when compared to the growth rate of control tumors treated with CTMMP-2(10-1) or with PBS control.

αIIbβ3 = biological target: T2, αIIbβ3 (Homo sapiens, UniProt P05106+P08514); assay: Solid phase receptor binding assay (iodinated MMP-2, labeled fusion proteins)
T2 construct: selected purified integrins were separately immobilized in Titertek microtiter wells

Row | competition of labeled GST2-4 binding by unlabeled protein (αvβ3) | inhibition of binding of iodinated MMP-2 to αvβ3 (αvβ3; FIG. 8) | binding of 125I-labeled fusion protein to αvβ3 (αvβ3; FIG. 9) | bound iodinated MMP-2 on immobilized αvβ3 (αvβ3) | bound iodinated MMP-2 on immobilized αIIbβ3 (αIIbβ3) | Molecule | inhibition of β3-expressing CS-1 cell adhesion to laminin [1] | inhibition of β3-expressing CS-1 cell adhesion to vitronectin [1] | inhibition of bFGF-induced angiogenesis by fusion protein [2] | reduction in tumor growth rate (CS-1 tumor (β3-negative))
1 | competed | inhibited the binding of iodinated MMP-2 | bound | – | – | CTMMP-2(2-4): GST fusion protein of chicken MMP-2 C-terminal residues 445-637 (protein, left off: a dimerising Fc or GST) LCKHDIVFDGVAQIRGEIFFFKDRFMWRTVNPRGKPTGPLLVATFWPDLPEKIDAVYESPQDEKAVFFAGNEYWVYTASNLDRGYPKKLTSLGLPPDVQRIDAAFNWGRNKKTYIFSGDRYWKYNEEKKKMELATPKFIADSWNGVPDNLDAVLGLTDSGYTYFFKDQYYLQMEDKSLKIVKIGKISSDWLGC | but not laminin | inhibited | almost completely inhibited | about 50%
2 | – | – | – | 300 cpm | approximately 10 CPM | MMP-2: matrix metalloproteinase-2, intact protein (protein) APSPIIKFPGDSTPKTDKELAVQYLNKYYGCPKDNCNLFVLKDTLKKMQKFFGLPETGDLDQNTIETMKKPRCGNPDVANYNFFPRKPKWEKNHITYRIIGYTPDLDPETVDDAFARAFKVWSDVTPLRFNRINDGEADIMINFGRWEHGDGYPFDGKDGLLAHAFAPGPGIGGDSHFDDDELWTLGEGQVVRVKYGNADGEYCKFPFWFNGKEYNSCTDAGRNDGFLWCSTTKDFDADGKYGFCPHESLFTMGGNGDGQPCKFPFKFQGQSYDQCTTEGRTDGYRWCGTTEDYDRDKKYGFCPETAMSTVGGNSEGAPCVFPFIFLGNKYDSCTSAGRNDGKLWCASTSSYDDDRKWGFCPDQGYSLFLVAAHEFGHAMGLEHSEDPGALMAPIYTYTKNFRLSQDDIKGIQELYEVSPDVEPGPGPGPGPGPRPTLGPVTPELCKHDIVFDGVAQIRGEIFFFKDRFMWRTVNPRGKPTGPLLVATFWPDLPEKIDAVYESPQDEKAVFFAGNEYWVYTASNLDRGYPKKLTSLGLPPDVQRIDAAFNWGRNKKTYIFSGDRYWKYNEEKKKMELATPKFIADSWNGVPDNLDAVLGLTDSGYTYFFKDQYYLQMEDKSLKIVKIGKISSDWLGC | but not laminin | inhibited | – | –
